The test deals with Lactococcus lactis pyruvate carboxylase (Lactococcus lactis). Kind of test: cryo-EM structure; LlPC under reaction conditions: 0.1 uM LlPC, 2 mM acetyl-CoA, 20 mM pyruvate, 2 mM ATP, 10 mM KHCO3, 5 mM MgCl2, 2 mM DTT, 200 mM NaCl, 20 mM Tris pH 7.6; symmetry expansion, focused classification of BC and CT domains.

For orientation: stoichiometry N means a count of units in the complex or per binding partner. As to “Lactococcus lactis pyruvate carboxylase (enzyme)”, the stoichiometry N came out at 4.

The values are drawn from PMC9581989.
